Data from patent US20190218304A1 (INNATE PHARMA, published 2019).

Legend:
[1] = biological target: T1, human CD39 expressed on cells (human, UniProt P49961 1-510); assay: flow cytometry titration on Ramos lymphoma cells, second experiment; Ramos cells, second set of experiments
T1 construct: On CHO transfectants, HEK-293T transfectants (wild type), Ramos lymphoma cells or monocyte-derived dendritic cells, as named under assay; also called huCD39; CHO-huCD39
T1 sequence: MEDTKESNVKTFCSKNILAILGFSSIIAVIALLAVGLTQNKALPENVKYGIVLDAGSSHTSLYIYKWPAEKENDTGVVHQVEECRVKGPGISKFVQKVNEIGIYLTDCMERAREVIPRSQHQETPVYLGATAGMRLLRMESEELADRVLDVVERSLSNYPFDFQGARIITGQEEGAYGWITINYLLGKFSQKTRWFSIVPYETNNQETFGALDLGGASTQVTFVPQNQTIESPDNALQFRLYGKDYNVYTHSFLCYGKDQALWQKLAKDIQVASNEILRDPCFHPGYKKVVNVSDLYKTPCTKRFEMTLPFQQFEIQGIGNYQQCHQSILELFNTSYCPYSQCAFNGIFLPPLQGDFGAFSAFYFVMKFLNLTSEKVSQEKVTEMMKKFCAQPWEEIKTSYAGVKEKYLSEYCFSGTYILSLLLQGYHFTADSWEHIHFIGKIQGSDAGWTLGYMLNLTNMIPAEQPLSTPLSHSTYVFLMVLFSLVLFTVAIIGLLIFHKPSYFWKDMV
Procedure: (§1) Cells were incubated with various concentration of unlabeled anti-CD39 antibody from 30 μg/ml to 5×10⁻⁴ μg/ml, for 30 minutes at 4° C. After washes, cells were incubated with Goat anti-mouse H+L labeled secondary antibody for 30 min at 4° C.

Human CD39-L3 = biological target: T2, Human CD39-L3 (human, UniProt O75355 44-485, limits assumed); assay: ELISA on coated recombinant human CD39-L3 [panel huCD39 L3]
T2 construct: Recombinant protein coated in ELISA; also called NTPDase3; ENTPD3
T2 sequence: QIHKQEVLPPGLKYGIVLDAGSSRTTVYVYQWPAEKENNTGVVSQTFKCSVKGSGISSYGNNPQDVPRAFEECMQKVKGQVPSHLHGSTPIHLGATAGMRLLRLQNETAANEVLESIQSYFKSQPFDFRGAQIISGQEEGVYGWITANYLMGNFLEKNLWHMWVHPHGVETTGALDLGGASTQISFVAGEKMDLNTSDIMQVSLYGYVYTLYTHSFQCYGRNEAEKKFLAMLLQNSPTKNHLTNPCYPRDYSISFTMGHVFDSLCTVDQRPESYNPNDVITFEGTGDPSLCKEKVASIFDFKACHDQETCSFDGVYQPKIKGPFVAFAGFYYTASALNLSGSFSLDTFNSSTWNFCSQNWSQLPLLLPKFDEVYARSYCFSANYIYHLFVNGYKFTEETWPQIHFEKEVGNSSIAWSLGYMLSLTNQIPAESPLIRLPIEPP
Procedure: Wells were washed in TBS Tween 20, and further saturated 2H at RT in TBS Blocking buffer. Dose range concentration of primary antibody was incubated in TBS blocking buffer for 2 h at RT. Wells were washed in TBS Tween 20. […] Optical density was measured on Enspire™ at OD=450.

[2] = biological target: T3, recombinant human CD39-M2 extracellular domain protein (human, UniProt P49961 38-478); assay: cell-based or functional assay
T3 sequence: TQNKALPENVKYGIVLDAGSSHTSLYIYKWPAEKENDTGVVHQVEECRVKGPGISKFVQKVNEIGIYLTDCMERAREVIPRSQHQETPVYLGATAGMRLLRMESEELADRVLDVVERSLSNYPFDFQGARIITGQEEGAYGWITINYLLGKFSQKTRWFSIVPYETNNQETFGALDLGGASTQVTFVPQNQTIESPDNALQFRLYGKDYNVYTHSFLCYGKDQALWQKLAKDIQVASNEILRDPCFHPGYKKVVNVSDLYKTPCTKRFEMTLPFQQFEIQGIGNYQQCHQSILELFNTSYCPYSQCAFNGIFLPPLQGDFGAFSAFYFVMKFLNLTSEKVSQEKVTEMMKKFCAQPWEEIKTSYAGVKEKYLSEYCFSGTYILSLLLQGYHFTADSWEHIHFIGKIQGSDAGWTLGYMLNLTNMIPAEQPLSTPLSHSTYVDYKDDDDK

[3] = biological target: T1, human CD39 expressed on cells; assay: cell-based or functional assay
CD39 mutant 5 = biological target: T4, CD39 mutant 5 (human, UniProt P49961 1-510); assay: flow cytometry on Hek-293T cells transfected with CD39 mutant 5 [panel M5]
T4 construct: Expressed on transfected Hek-293T cells; also called M5
T4 chain: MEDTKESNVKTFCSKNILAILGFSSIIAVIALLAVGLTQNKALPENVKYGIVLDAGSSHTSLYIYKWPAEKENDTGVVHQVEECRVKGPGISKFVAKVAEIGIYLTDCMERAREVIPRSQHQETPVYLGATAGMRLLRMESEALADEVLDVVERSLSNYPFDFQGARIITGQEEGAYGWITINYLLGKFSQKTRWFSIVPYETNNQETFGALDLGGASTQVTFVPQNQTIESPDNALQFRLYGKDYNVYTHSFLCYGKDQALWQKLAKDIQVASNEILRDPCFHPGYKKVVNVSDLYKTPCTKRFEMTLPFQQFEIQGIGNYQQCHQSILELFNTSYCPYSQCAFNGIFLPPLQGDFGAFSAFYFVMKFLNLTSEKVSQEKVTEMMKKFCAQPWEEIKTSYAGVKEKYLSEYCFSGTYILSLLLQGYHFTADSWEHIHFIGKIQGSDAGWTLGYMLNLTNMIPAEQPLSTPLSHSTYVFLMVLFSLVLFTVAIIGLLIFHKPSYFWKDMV

[4] = biological target: T1, human CD39 expressed on cells; assay: flow cytometry titration on Ramos lymphoma cells, first experiment; Ramos cells, first set of experiments
Procedure: as §1

EC50 [1]: 0.19 mg/L
binding result (Human CD39-L3): no binding
IC50, inhibition of the ATPase activity of soluble CD39 protein [2]: 0.003 mg/L
IC50 (inhibition of 50% of the enzymatic activity of CD39 expressed by 50,000 Ramos cells) [3]: 0.05 mg/L
binding result (CD39 mutant 5): binds
EC50 [4]: 0.16 mg/L
B1: antibody I-394 (antibody, human IgG1, kappa, V domains shown)
VH: EVQLQQSGPELVKPGASVKMSCKASGYTFTDYNMHWVKQSHGRTLEWIGYIVPLNGGSTFNQKFKGRATLTVNTSSRTAYMELRSLTSEDSAAYYCARGGTRFAYWGQGTLVTVSA
VL: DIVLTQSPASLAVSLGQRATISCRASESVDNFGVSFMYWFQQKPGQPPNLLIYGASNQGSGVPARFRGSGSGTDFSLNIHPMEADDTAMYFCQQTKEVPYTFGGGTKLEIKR
notes: The hybridoma-derived mouse form was used in early screening
